Data taken from US9120851B2, “Human antibodies to human angiopoietin-like protein 4” (Regeneron Pharmaceuticals, Inc., priority 2009, dated 2015).

Assays:
mANGPTL4-His = target: T1, mANGPTL4-His (Mus musculus, UniProt Q9Z1P8); experiment: BIACORE cross-reactivity, amine coupled mANGPTL4-His; format: binding; settings: for Specific RU, mANGPTL4-His: chip surface 5233 RU, mAb injected at 3.125-50 μg/mL
T1 sequence (Q9Z1P8 26-410): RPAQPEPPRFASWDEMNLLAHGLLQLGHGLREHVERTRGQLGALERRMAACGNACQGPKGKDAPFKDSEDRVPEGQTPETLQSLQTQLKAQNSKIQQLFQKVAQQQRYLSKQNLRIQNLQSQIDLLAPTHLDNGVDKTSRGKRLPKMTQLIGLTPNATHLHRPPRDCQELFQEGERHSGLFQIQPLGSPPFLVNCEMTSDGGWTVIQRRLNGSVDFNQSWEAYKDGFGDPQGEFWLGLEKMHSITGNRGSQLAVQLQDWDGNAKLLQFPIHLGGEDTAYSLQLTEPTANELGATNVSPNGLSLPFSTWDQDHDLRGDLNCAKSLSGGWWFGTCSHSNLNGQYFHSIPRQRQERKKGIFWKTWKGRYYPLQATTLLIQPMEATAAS
Description: (§1) Possible cross-reactivity of the anti-hANGPTL4 antibodies to related proteins, i.e., hANGPTL3, human angiopoietin-like protein 5 (hANGPTL5) and mouse ANGPTL4 (mANGPTL4), was tested for the selected antibodies, i.e., H1H268P and H1H284P, using the BIACORE™ system. Briefly, anti-hANGPTL4 antibodies as well as negative controls, i.e., two monoclonal antibodies (Control a and Control b) that are non-binders to any ANGPTL proteins, were injected at 3.125 μg/mL-50 μg/mL over amine coupled chip surfaces of hANGPTL3-His (R&D Systems, cat #3829-AN) at 5228 RU, hANGPTL4-His (R&D Systems, cat #4487-AN) at 6247 RU, hANGPTL5-His (Abnova Corp., cat #H00253935-P01) at 5265 RU, and mANGPTL4-His [R26-S410 of mANGPTL4 (SEQ ID NO: 478) fused with an AS linker to a C-terminal 6-histidine tag] at 5233 RU, respectively. A polyclonal antibody specific for hANGPTL3 (R&D System, cat #BAF3485) was also tested.

[1] = target: T2, hANGPTL4 peptide (R34-L66 of SEQ ID NO:476) (Homo sapiens, UniProt Q9BY76); experiment: BIACORE, hANGPTL4 peptides injected over captured antibody; format: binding; settings: for ka: 62.5 nM-500 nM
T2 sequence (Q9BY76 34-66 limits assumed): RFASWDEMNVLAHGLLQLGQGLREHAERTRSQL
Description: Further, the binding affinities of H1H268P and H1H284P for various ANGPTL3 and ANGPTL4 peptides were also determined by BIACORE™ system. Briefly, H1H268P (1348±11 RU) and H1H284P (868±13 RU) were captured over anti-human Fc surface and various concentrations (62.5 nM-500 nM) of the hANGPTL3 and hANGPTL4 peptides were injected. The peptides tested were hANGPTL4 (R34-L66 of SEQ ID NO:476), N-terminally biotinylated hANGPTL4 (R34-L66 of SEQ ID NO:476), hANGPTL3 (R36-I68 of SEQ ID NO:485), and N-terminally biotinylated hANGPTL3 (R36-I68 of SEQ ID NO:485). Kinetic analysis was performed to measure ka and kd, and KD values and half-life of antigen/antibody complex dissociation were calculated. NB: No binding under the experimental conditions described.

mANGPTL4(26-410)-His = target: T3, mANGPTL4(26-410)-His (Mus musculus, UniProt Q9Z1P8); experiment: Cell-free LPL bioassay, inhibition of mANGPTL4-His; format: biochemical; settings: constant 1 nM mANGPTL4(26-410)-His; antibody 0 to 100 nM; NB: Not blocking
T3 sequence (Q9Z1P8 26-410): T1 sequence (Q9Z1P8 26-410)

hANGPTL3-His = target: T4, hANGPTL3-His (Homo sapiens, UniProt Q9Y5C1); experiment: BIACORE cross-reactivity, amine coupled hANGPTL3-His; format: binding; settings: for Specific RU, hANGPTL3-His: chip surface 5228 RU, mAb injected at 3.125-50 μg/mL
T4 construct: His; purchased R&D Systems 3829-AN
T4 sequence (Q9Y5C1 17-460): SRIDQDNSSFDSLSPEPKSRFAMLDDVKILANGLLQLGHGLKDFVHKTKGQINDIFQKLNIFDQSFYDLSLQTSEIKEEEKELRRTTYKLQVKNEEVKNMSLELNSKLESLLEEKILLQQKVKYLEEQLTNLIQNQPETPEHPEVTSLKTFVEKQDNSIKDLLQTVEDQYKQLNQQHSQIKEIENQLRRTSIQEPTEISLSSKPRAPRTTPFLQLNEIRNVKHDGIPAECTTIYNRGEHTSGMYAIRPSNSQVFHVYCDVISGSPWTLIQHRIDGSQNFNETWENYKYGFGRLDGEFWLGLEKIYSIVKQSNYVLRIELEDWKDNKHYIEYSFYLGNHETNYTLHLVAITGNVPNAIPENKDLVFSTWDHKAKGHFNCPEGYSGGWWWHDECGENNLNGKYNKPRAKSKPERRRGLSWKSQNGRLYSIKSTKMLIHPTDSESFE
Description: as §1

hANGPTL4(26-406)-His = target: T5, hANGPTL4(26-406)-His (Homo sapiens, UniProt Q9BY76); experiment: BIACORE, full mAb or Fab over amino-coupled hANGPTL4(26-406)-His; format: binding; settings: for RU bound at 50 nM mAb or Fab: amino-coupled 450 RU
T5 construct: purchased R&D Systems
T5 sequence (Q9BY76 26-406): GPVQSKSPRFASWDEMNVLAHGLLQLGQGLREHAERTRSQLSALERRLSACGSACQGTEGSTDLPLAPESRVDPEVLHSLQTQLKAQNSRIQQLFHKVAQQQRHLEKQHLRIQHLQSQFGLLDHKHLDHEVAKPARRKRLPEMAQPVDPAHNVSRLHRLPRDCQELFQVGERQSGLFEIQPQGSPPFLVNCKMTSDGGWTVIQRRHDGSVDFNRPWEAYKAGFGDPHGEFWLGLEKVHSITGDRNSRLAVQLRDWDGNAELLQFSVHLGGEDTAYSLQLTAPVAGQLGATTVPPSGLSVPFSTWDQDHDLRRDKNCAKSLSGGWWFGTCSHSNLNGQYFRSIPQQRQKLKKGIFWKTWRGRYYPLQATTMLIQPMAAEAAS
Description: Briefly, various concentrations (3.125 nM-100 nM) of anti-hANGPTL4 antibodies (i.e., H1H268 Fab, entire H1H268 mAb, H1H284 Fab, and entire H1H284 mAb) were injected over a low density anti-mFc captured hANGPTL4(26-148)-mFc (˜68±4 RU) surface, or the surface of amino-coupled hANGPTL4(26-406)-His (R&D Systems) (450 RU) or amino-coupled cynomolgus monkey N-terminal region (amino acid residues 1-130 of SEQ ID NO:490) expressed with an C-terminal hexa-histidine tag (MfANGPTL4(1-130)-His) (1,028 RU). Kinetic analysis was performed to measure ka and kd, and KD values and half-life of antigen/antibody complex dissociation were calculated. The results are shown in Table 4 (H1H268P) and Table 5 (H1H284P).

[2] = hANGPTL4 peptide (not biotinylated)

B1: H1H284P: anti-hANGPTL4 antibody, hIgG1 isotype, HCVR/LCVR SEQ ID NOs 90/92 (antibody, V domains shown)
VH: QVQLVESGGGVVQPGRSLRLSCAASGFTFSSYGMHWVRQAPGKGLEWMAVISFDGGNKNNADSVKGRFTISRDNSKNTLYLQMNSLRAEDTAVYYCAKEGDRSGHPYFYYYGLDVWGQGTTVTVS
VL: DIQLTQSPSFLSASVGDRVTITCWASQGISSYLAWYQQKPGKAPKLLIYAASTLQSGVPSRFSGSGSETEFTLTISSLQPEDFATYYCQQLHSYPLTFGGGTKVEIK
binding to mANGPTL4-His (other related ANGPTL protein), in words (mANGPTL4-His): did not bind
Specific RU, mANGPTL4-His (mANGPTL4-His): 18 RU
binding to the hANGPTL4 peptides, in words ([1]; both peptides, highest peptide concentration tested 500 nM): did not bind
IC50 (mANGPTL4(26-410)-His): > 100 nM
binding to hANGPTL3-His (other related ANGPTL protein), in words (hANGPTL3-His): did not bind
Specific RU, hANGPTL3-His (hANGPTL3-His): −6 RU
ka (hANGPTL4(26-406)-His; pH 5.75, 25° C.): 1.93e+06 M⁻¹ s⁻¹
kd (hANGPTL4(26-406)-His; pH 5.75, 25° C.): 0.000272 s⁻¹
RU bound at 50 nM mAb or Fab (hANGPTL4(26-406)-His; pH 5.75, 25° C.): 101
ka (hANGPTL4(26-406)-His; pH 7.2, 25° C.): 850000 M⁻¹ s⁻¹
kd (hANGPTL4(26-406)-His; pH 7.2, 25° C.): 8.85e-05 s⁻¹
RU bound at 50 nM mAb or Fab (hANGPTL4(26-406)-His; pH 7.2, 25° C.): 77

B2: H1H268P: anti-hANGPTL4 antibody, hIgG1 isotype, HCVR/LCVR SEQ ID NOs 42/44 (antibody, V domains shown)
VH: QVQLQESGAGLLKPSETLSLTCTVYGGSFSIHHWTWIRHPPGKGLEWIGEINHRGSTNYNPSLKSRVTISIDTSKNQFSLKLSAVTAADTAVYYCARGLRFLDWLSSYFDYWGQGTLVTVSS
VL: DIQMTQSPSSLSASVGDRVTITCRASQGISDYLAWYQQKPGKVPNLLIYAASALQSGVPSRFSGSGSGTDFTLTISSLQPEDVATYYCQNYNTAPLTFGGGTKVEIK
binding to mANGPTL4-His (other related ANGPTL protein), in words (mANGPTL4-His): did not bind
Specific RU, mANGPTL4-His (mANGPTL4-His): −7 RU
kd ([1]; hANGPTL4-Nterm biotin peptide): 0.000294 s⁻¹
ka ([1]; hANGPTL4-Nterm biotin peptide): 4530 M⁻¹ s⁻¹
kd [1, 2]: 0.000365 s⁻¹
ka [1, 2]: 6490 M⁻¹ s⁻¹
IC50 (mANGPTL4(26-410)-His): > 100 nM
binding to hANGPTL3-His (other related ANGPTL protein), in words (hANGPTL3-His): did not bind
Specific RU, hANGPTL3-His (hANGPTL3-His): −17 RU
ka (hANGPTL4(26-406)-His; pH 5.75, 25° C.): 923000 M⁻¹ s⁻¹
kd (hANGPTL4(26-406)-His; pH 5.75, 25° C.): 0.000446 s⁻¹
RU bound at 50 nM mAb or Fab (hANGPTL4(26-406)-His; pH 5.75, 25° C.): 45
ka (hANGPTL4(26-406)-His; pH 7.2, 25° C.): 489000 M⁻¹ s⁻¹
kd (hANGPTL4(26-406)-His; pH 7.2, 25° C.): 0.0002 s⁻¹
RU bound at 50 nM mAb or Fab (hANGPTL4(26-406)-His; pH 7.2, 25° C.): 38
